Here are results for 6 molecules from patent publication US20100130721A1.

B1: fusion protein PG2 (designed binder)
chain: AYRLILNGRTLRGETTTEAVDAATAERVFRQYANDNGVDGEWTYDDATRTFTVTERPEVIDASELTPAVTPGAYRLILNGRTLRGETTTEAVDAATAERVFRQYANDNGVDGEWTYDDATRTFTVTERPEVIDASELTPAVTGGGGCADDDDDDHHHHHH
B2: fusion protein PG3 (designed binder)
chain: AYRLILNGRTLRGETTTEAVDAATAERVFRQYANDNGVDGEWTYDDATRTFTVTERPEVIDASELTPAVTPGAYRLILNGRTLRGETTTEAVDAATAERVFRQYANDNGVDGEWTYDDATRTFTVTERPEVIDASELTPAVTPGAYRLILNGRTLRGETTTEAVDAATAERVFRQYANDNGVDGEWTYDDATRTFTVTERPEVIDASELTPAVTGGGGCADDDDDDHHHHHH
B3: fusion protein PL2 (designed binder)
chain: ATIRANLIYADGRTQTAEFRGTFEEATAEAYRYADLLPRENGRYTVDVADRGYTLNIRFAPGATIRANLIYADGRTQTAEFRGTFEEATAEAYRYADLLPRENGRYTVDVADRGYTLNIRFAGGGGGCADDDDDDHHHHHH
B4: fusion protein PL1 (designed binder)
chain: ATIRANLIYADGRTQTAEFRGTFEEATAEAYRYADLLARENGRYTVDVADRGYTLNIRFAGGGGGCADDDDDDHHHHHH
B5: fusion protein PG1 (designed binder)
chain: AYRLILNGRTLRGETTTEAVDAATAERVFRQYANDNGVDGEWTYDDATRTFTVTERPEVIDASELTPAVTGGGGCADDDDDDHHHHHH
B6: fusion protein PL3 (designed binder)
chain: ATIRANLIYADGRTQTAEFRGTFEEATAEAYRYADLLPRENGRYTVDVADRGYTLNIRFAPGATIRANLIYADGRTQTAEFRGTFEEATAEAYRYADLLPRENGRYTVDVADRGYTLNIRFAPGATIRANLIYADGRTQTAEFRGTFEEATAEAYRYADLLPRENGRYTVDVADRGYTLNIRFAGGGGGCADDDDDDHHHHHH

In this experiment the target is human polyclonal IgG (human). The experiment can be described thus: SPR (Biacore), His-tagged fusion protein captured on Ni-NTA chip, human IgG injected.
In the case of B1, the Kd came out at 115 pM, the koff came to 0.0001 s⁻¹ and the kon is 864000 M⁻¹ s⁻¹.
B2 showed a Kd of 68 pM, a koff of 7.63e-05 s⁻¹ and a kon of 1.12e+06 M⁻¹ s⁻¹.
B3 had a Kd of 1340 pM, a koff of 0.000264 s⁻¹ and a kon of 246000 M⁻¹ s⁻¹.
For B4, in that order: 2060 pM, 0.000312 s⁻¹ and 151000 M⁻¹ s⁻¹.
The corresponding values for B5 are 384 pM, 0.000154 s⁻¹ and 401000 M⁻¹ s⁻¹.
In turn, B6 had a Kd of 788 pM, a koff of 0.000237 s⁻¹ and a kon of 301000 M⁻¹ s⁻¹.
